# T1: TTD (residues 134–285) of UHRF1 (Homo sapiens, UniProt Q96T88)
# T1 construct: TTD (residues 134–285); GST (N, cleaved yes); made in house; host or cells: E. coli BL21 (DE3)
# T1 sequence (Q96T88 134-285): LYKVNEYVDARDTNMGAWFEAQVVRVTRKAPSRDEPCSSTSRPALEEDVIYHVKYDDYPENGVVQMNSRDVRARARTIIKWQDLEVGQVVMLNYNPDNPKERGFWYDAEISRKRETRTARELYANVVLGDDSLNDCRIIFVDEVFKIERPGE
# B1: UHRF1∆627-674: spacer deletion mutant of UHRF1 (residues 627–674 deleted) (protein)
# chain: MWIQVRTMDGRQTHTVDSLSRLTKVEELRRKIQELFHVEPGLQRLFYRGKQMEDGHTLFDYEVRLNDTIQLLVRQSLVLPHSTKERDSELSDTDSGCCLGQSESDKSSTHGEAAAETDSRPADEDMWDETELGLYKVNEYVDARDTNMGAWFEAQVVRVTRKAPSRDEPCSSTSRPALEEDVIYHVKYDDYPENGVVQMNSRDVRARARTIIKWQDLEVGQVVMLNYNPDNPKERGFWYDAEISRKRETRTARELYANVVLGDDSLNDCRIIFVDEVFKIERPGEGSPMVDNPMRRKSGPSCKHCKDDVNRLCRVCACHLCGGRQDPDKQLMCDECDMAFHIYCLDPPLSSVPSEDEWYCPECRNDASEVVLAGERLRESKKKAKMASATSSSQRDWGKGMACVGRTKECTIVPSNHYGPIPGIPVGTMWRFRVQVSESGVHRPHVAGIHGRSNDGAYSLVLAGGYEDDVDHGNFFTYTGSGGRDLSGNKRTAEQSCDQKLTNTNRALALNCFAPINDQEGAEAKDWRSGKPVRVVRNVKGGKNSKYAPAEGNRYDGIYKVVKYWPEKGKSGFLVWRYLLRRDDDEPGPWTKEGKDRIKKLGLTMQYPEGYLEALANREREKENSKSLTAQQSSLIREDKSNAKLWNEVLASLKDRPASGSPFQLFLSKVEETFQCICCQELVFRPITTVCQHNVCKDCLDRSFRAQVFSCPACRYDLGRSYAMQVNQPLQTVLNQLFPGYGNGR
# modifications: left off: GST, end not stated, cleaved
# B2: SRA–Spacer: human UHRF1 residues 414–674 (protein)
# chain: PSNHYGPIPGIPVGTMWRFRVQVSESGVHRPHVAGIHGRSNDGAYSLVLAGGYEDDVDHGNFFTYTGSGGRDLSGNKRTAEQSCDQKLTNTNRALALNCFAPINDQEGAEAKDWRSGKPVRVVRNVKGGKNSKYAPAEGNRYDGIYKVVKYWPEKGKSGFLVWRYLLRRDDDEPGPWTKEGKDRIKKLGLTMQYPEGYLEALANREREKENSKREEEEQQEGGFASPRTGKGKWKRKSAGGGPSRAGSPRRTSKKTKVEPY
# modifications: left off: GST, end not stated, cleaved
# How the values were obtained:
# FAM-12bp-HM-DNA = assay: Fluorescence polarization, 12-bp FAM-hm-DNA; type: binding; conditions: for Kd: FP
# Method: A 6-carboxy-fluorescein (FAM)-labelled primer, 5′-CCATGCGCTGAC-3′, was annealed to a primer 5′-GTCAGXGCATGG-3′ (X=5-methyldeoxycytosine). The hemi-methylated double-strand DNA was used in both electrophoretic mobility-shift assay and FP assays. […] The samples were subjected to a 10% polyacrylamide gel electrophoresis and run in 0.5 × Tris-borate-EDTA buffer at 100 V for 1 h at 4 °C. The results were visualized on Tanon-5200 Chemiluminescent Imaging System (Tanon Science & Technology Co., Ltd).
# (§1) FP measurements were performed at 25 °C on Synergy 4 Microplate Reader (BioTek). The 16-bp and 20-bp FAM-labelled hm-DNA (lower strand: 5′-GTGTCAGXGCATGGCC-3′ and 5′-CCGTGTCAGXGCATGGCCAT-3′, respectively. X=5-methyldeoxycytosine) were used in the FP experiment to test the effect of DNA length on the protein/DNA interaction. All experiments were performed in triplicate. The curves were fitted by GraphPad Prism 5. For salt concentration-dependent FP experiments, the reaction buffer contains 50 mM or 150 mM NaCl, respectively.
# H3K9me3 peptide (1–17) = assay: ITC, H3K9me3 peptide (1-17) titrated into UHRF1 proteins; type: binding; conditions: ITC KD ratio
# Method: (§2) For competition ITC experiments: the indicated proteins were pre-incubated with competitive peptide, protein or hm-DNA (at 1:2 molar ratio if not specified) for 10 min followed by ITC measurements as described above. Proteins, DNA and peptides were prepared within ITC buffer containing 10 mM HEPES, pH 8.0, 100 mM NaCl. The data were fitted by software Origin 7.0. All ITC results were summarized in Supplementary Table 2 and raw data were shown in Supplementary Fig. 9.
# [1] = system: DAPI foci (pericentromeric heterochromatin) in NIH3T3 cells; assay: Subcellular localization of GFP-tagged UHRF1 in NIH3T3 cells; type: cell-based; conditions: GFP-tagged protein transiently overexpressed in NIH3T3 cells, 36 h after transfection; at least 100 cells counted; repeated three times
# Method: NIH3T3 cells were obtained from the Shanghai Institute of Biochemistry and Cell Biology. Wild type and mutants of UHRF1 were sub-cloned into pEGFP-C1 vector. Transient transfections of NIH3T3 cells were carried out using Lipofectamine 2000 (Invitrogen). The NIH3T3 cells were grown on glass coverslips and harvested in 36 h after transfection. The images were acquired and examined as previously described. Briefly, cells were fixed with 4% paraformaldehyde for 25 min, then washed with PBS three times. Coverslips were mounted with Antifade reagent containing DAPI (Molecular Probes) on slides and examined with a confocal microscopy.
# FAM-20bp-HM-DNA = assay: Fluorescence polarization, 20-bp FAM-hm-DNA; type: binding; conditions: FP, DNA length series
# Method: as §1
# hm-DNA (12 bp) = assay: ITC, hm-DNA titrated into UHRF1 domains; type: binding; conditions: 18 °C, 12-bp hm-DNA in syringe, named protein in cell, 10 mM HEPES pH 8.0, 100 mM NaCl
# Method: as §2
# FAM-16bp-HM-DNA = assay: Fluorescence polarization, 16-bp FAM-hm-DNA; type: binding; conditions: FP, DNA length series
# Method: as §1
# RFTS^DNMT1 = assay: ITC, RFTS of DNMT1 with SRA or SRA-Spacer; type: binding; conditions: 18 °C, RFTS^DNMT1 with named protein, 10 mM HEPES pH 8.0, 100 mM NaCl
# Method: as §2
# [2] = target: T1, TTD (residues 134–285) of UHRF1; assay: ITC, TTD titrated into Spacer variants and other UHRF1 fragments; type: binding; conditions: TTD in syringe
# Method: as §2
# [3] = 25 °C, 20 min, 20 mM HEPES pH 7.5, 175 mM NaCl, 8% glycerol, 1 mM DTT, triplicate, Fig. 5b and Supplementary Table 4
Molecule,factor of decrease in hm-DNA-binding affinity compared with full-length UHRF1 (FAM-12bp-HM-DNA; FP KD ratio),Kd (FAM-12bp-HM-DNA; [3]) [nM],fold higher binding affinity to H3K9me3 peptide than full-length UHRF1 (H3K9me3 peptide (1–17)),percentage of cells showing co-localization with DAPI foci [1] [%],Kd (FAM-20bp-HM-DNA) [nM],"Kd (FAM-12bp-HM-DNA; 12-bp hm-DNA, 50 mM NaCl) [nM]","Kd (FAM-12bp-HM-DNA; 12-bp hm-DNA, 150 mM NaCl) [nM]","Kd (FAM-12bp-HM-DNA; DNA length series, Supplementary Table 5, 12-bp hm-DNA) [nM]",Kd (FAM-12bp-HM-DNA; values as printed in Fig. 5c (Spacer truncation mapping)) [nM],Kd (hm-DNA (12 bp)) [nM],Kd (FAM-16bp-HM-DNA) [nM],Kd (RFTS^DNMT1) [nM],N ([2]; ITC stoichiometry),ΔH ([2]; ITC) [cal/mol],ΔS ([2]; ITC) [cal/mol/deg]
B1,14,4940 ± 1090,four,22.1,,,,,,,,,,,
B2,,490,,,400 ± 70,24 ± 3.7,580 ± 98,340 ± 90,490,1750,390 ± 70,7090,0.788±0.0108,-1.199E4±224.9,-13.3

# From publication PMC4822050, “Hemi-methylated DNA opens a closed conformation of UHRF1 to facilitate its histone recognition” (Nature Communications, 2016)
